Measured values from patent US6881547B1, “Methods and reagents for treating autoimmune disorders” (priority 2001, dated 2005).

How the values were obtained:
[1] = tested on: 22-25-kDa conformers of the native human α3(IV)NC1 domain
[2] = tested on: 27-kDa conformer of the native human α3(IV)NC1 domain
[3] = tested on: T1, FLAG-tagged recombinant GPBP (rGPBP)
T1 sequence: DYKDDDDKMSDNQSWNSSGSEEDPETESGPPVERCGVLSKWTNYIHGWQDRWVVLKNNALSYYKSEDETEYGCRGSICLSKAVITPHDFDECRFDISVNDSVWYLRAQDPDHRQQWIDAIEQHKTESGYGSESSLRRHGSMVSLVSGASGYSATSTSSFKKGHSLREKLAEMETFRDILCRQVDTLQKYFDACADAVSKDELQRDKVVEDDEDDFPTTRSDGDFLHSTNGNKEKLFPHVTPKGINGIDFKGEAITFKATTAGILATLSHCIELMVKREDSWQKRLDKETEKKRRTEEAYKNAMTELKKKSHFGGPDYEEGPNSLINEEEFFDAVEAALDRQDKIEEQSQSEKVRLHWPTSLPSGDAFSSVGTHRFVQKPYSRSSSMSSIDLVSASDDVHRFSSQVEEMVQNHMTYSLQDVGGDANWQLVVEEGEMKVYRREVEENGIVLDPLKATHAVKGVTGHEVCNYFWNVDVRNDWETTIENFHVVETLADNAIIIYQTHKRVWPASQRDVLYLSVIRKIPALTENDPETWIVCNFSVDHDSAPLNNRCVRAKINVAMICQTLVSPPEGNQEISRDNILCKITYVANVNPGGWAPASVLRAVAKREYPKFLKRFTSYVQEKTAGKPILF

[4] = tested on: prokaryotic human recombinant α3(IV)NC1
[5] = tested on: rGPΔIII/IV/V
Sequence of rGPΔIII/IV/V (chain, as listed by the source mutant): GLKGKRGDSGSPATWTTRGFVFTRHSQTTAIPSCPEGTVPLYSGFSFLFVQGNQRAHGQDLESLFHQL

[6] = tested on: rGPΔIII
Sequence of rGPΔIII (chain, as listed by the source mutant): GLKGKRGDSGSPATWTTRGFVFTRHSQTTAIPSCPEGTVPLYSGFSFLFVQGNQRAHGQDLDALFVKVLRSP

[7] = tested on: rGPΔV
Sequence of rGPΔV (chain, as listed by the source mutant): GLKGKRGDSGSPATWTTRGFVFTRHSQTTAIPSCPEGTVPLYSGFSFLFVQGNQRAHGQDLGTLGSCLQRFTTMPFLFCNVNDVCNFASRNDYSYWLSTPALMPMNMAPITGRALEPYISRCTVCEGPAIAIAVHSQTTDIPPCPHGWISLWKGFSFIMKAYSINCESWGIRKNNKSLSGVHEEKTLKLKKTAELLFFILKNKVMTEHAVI

[8] = target: rMBP, recombinant 21 kDa human myelin basic protein (UniProt P02686)
[9] = tested on: rMBPΔII, recombinant 18.5 kDa human myelin basic protein
[10] = target: T2, β-galactosidase-derived fusion protein of clone HeLa1 containing the N-terminal 150 residues of GPBP (human, UniProt Q5R6M6 1-150 (Pongo abelii entry)); assay: filter screen of λ-gt11 expression libraries with GPpep1, detected with M3/1A
T2 construct: also called HeLa1 fusion protein; not shown: β-galactosidase part of the λ-gt11 fusion
T2 sequence: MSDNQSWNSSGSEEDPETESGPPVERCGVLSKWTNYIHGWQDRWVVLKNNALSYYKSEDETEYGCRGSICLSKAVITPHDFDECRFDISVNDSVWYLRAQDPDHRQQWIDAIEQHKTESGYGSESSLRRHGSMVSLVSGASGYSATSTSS
Description: Isolation and characterization of cDNA clones encoding human GPBP-Several human λ-gt11 cDNA expression libraries (eye, fetal and adult lung, kidney and HeLa S3, from CLONTECH) were probed for cDNAs encoding proteins interacting with GPpep1. Nitrocellulose filters (Millipore) prepared following standard immunoscreening procedures were blocked and incubated with 1–10 nmoles per ml of GPpep1 at 37° C. Specifically bound GPpep1 was detected using M3/1A monoclonal antibodies (7). A single clone was identified in the HeLa-derived library (HeLa1). Specificity of fusion protein binding was confirmed by similar binding to recombinant eukaryotic human GP antigen. The EcoRI cDNA insert of HeLa1 (0.5-kb) was used to further screen the same library and to isolate overlapping cDNAs. The largest cDNA (2.4-kb) containing the entire cDNA of HeLa1 (n4') was fully sequenced.

[11] = target: T3, FLAG-tagged recombinant GPBP (rGPBP) (human, UniProt Q9Y5P4 1-624, phosphoserine, phosphothreonine and phosphotyrosine present, sites not given); assay: far-Western on in-blot renatured human monomers, 30 ng/µl recombinant GPBP, Mab14 detection
T3 construct: Made in Pichia pastoris or 293 cells; also called FLAG-n4′
T3 sequence: T1 sequence
Description: Physical, chemical and immunochemical methods. Lnunoblot studies were performed as described in Example 4. For far-Western, after protein transfer the membrane was blocked with non-fat milk, incubated with 30 ng/μl of fα3 or recombinant GPBP and the bound recombinant material detected with α-FLAG or Mab14, respectively.

[12] = target: T4, GPpep1Ala^9
T4 chain: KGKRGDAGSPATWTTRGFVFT

[13] = target: T5, GPpep1
T5 chain: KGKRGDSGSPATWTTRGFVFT

[14] = target: T6, Human recombinant GP antigen (rGP) produced in 293 cells
T6 chain: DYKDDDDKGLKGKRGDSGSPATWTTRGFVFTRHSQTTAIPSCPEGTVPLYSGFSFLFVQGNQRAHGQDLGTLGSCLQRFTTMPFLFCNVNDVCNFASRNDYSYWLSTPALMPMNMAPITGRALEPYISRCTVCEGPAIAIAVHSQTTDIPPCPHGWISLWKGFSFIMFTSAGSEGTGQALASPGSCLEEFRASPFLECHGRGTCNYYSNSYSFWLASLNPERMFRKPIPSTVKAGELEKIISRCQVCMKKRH

[15] = target: T7, alkaline phosphatase-treated fα3
T7 chain: T6 chain

[16] = target: T8, native bovine α3(IV)NC1 domain (bovine GP antigen), Q28084
T8 chain: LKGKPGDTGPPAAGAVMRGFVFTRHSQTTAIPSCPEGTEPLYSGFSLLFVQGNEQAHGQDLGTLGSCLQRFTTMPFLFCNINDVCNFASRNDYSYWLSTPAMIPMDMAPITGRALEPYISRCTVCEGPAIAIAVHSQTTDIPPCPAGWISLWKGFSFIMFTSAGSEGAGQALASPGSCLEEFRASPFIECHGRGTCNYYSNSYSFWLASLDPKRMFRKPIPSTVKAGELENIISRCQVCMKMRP

[17] = target: T9, native human α3(IV)NC1 domain (GP antigen) from renal cortex, monomer fraction of the hexamer
T9 chain: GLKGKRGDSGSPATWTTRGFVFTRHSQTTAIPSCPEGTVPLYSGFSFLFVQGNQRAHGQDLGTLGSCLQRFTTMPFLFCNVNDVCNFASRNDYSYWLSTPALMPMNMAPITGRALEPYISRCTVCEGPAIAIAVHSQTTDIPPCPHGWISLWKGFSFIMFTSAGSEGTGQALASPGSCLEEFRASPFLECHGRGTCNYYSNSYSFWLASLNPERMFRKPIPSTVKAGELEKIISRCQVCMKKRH

[18] = target: T10, prokaryotic human recombinant α3(IV)NC1
T10 chain: T9 chain

[19] = target: T11, rMBP, recombinant 21 kDa human myelin basic protein, P02686
T11 chain: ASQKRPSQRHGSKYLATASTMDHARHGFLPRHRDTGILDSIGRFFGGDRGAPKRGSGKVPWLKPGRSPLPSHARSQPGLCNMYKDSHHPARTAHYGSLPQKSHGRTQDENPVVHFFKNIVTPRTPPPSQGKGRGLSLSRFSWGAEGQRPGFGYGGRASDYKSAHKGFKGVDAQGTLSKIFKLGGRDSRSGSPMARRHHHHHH

[20] = target: T12, rMBPΔII, recombinant 18.5 kDa human myelin basic protein
T12 chain: T11 chain

In the case of “catalytic subunit of the cAMP-dependent protein kinase”, the “^32P incorporation, phosphorylation by PKA” value (shortened to “^32P incorporation … by PKA”) [1] is reported as “when the ATP concentration was lowered to extracellular-like concentrations (0.15 mM), the 22-kDa conformer was preferentially labeled”, the “^32P incorporation … by PKA” value [2] is reported as “At 150 mM ATP, the major ^32P incorporation occurred in the 27-kDa conformer” and the in vitro phosphorylation [3] is reported as “Bovine cPKA phosphorylates GPBP in vitro (not shown)”. For the same molecule, the “^32P incorporation … by PKA” value [4] was “all four recombinant antigens were phosphorylated but to very different extents”, the “^32P incorporation … by PKA” value [5] was “The alternative forms incorporated ^32P more efficiently than the primary GP antigen” and the “^32P incorporation … by PKA” value [6] was “The alternative forms incorporated ^32P more efficiently than the primary GP antigen”. For the same molecule, the “^32P incorporation … by PKA” value [7] was “The alternative forms incorporated ^32P more efficiently than the primary GP antigen”, the “in vitro phosphorylation by PKA” value [8] was “MBPΔII was a better substrate than MBP, and Ser^8 was the major phosphorylation site” and the “in vitro phosphorylation by PKA” value [9] was “MBPΔII was a better substrate than MBP, and Ser^8 was the major phosphorylation site”.

KGKRGDSGSPATWTTRGFVFT [GPpep1]: binds [10].

B1: 22-25-kDa conformers of the native human α3(IV)NC1 domain (other)
chain: T9 chain
modifications: phosphoserine, highest Ser(P) content among the conformers; sites not given
notes: also called 22-25-kDa polypeptides; 22-kDa conformer
B1: binds [11].

B2: FLAG-tagged recombinant GPBP (rGPBP) (protein)
chain: T1 sequence
B2 was tested, and the “^32P incorporation, in vitro phosphorylation” value [12] was “The lower ^32P incorporation displayed by GPpep1Ala9 when compared with GPpep1”, the “^32P incorporation, in vitro phosphorylation” value [13] was “Affinity-purified rGPBP phosphorylates all human-derived material to a different extent” and the “^32P incorporation, in vitro phosphorylation” value [14] was “Affinity-purified rGPBP phosphorylates all human-derived material to a different extent”. For the same molecule, the “monomeric Mab3-reactive material after oligomerization assay” value [15] was “the addition of GPBP to the phosphatase-treated samples resulted in a further reduction in the levels of monomeric material reactive with Mab3”, the “^32P incorporation, in vitro phosphorylation” value [16] was “no appreciable ^32P-incorporation was observed in the bovine-derived substrate” and the “conformers and oligomers after DTT consumption, Western blot” value [16] was “during DTT consumption GPBP catalyzed specific conformational isomerization reactions over the 27-kDa conformer”. For the same molecule, the “^32P incorporation, in vitro phosphorylation” value [17] was “Affinity-purified rGPBP phosphorylates all human-derived material to a different extent”, the “disruption of disulfide-based aggregates, Western blot” value [18] was “GPBP and, to a lesser extent GPBPΔ26 disrupted disulfide-based high molecular weight aggregates characteristic of recombinant material representing human α3(IV)NC1 produced in bacteria” and the “^32P incorporation, in situ phosphorylation on blot” value [19] was “GPBP preferentially phosphorylated MBP”. The “^32P incorporation, in situ phosphorylation on blot” value [20] was “little phosphorylation of MBPΔII was observed”.
